B1: human GDF15 (hGDF15), mature, generated in-house in CHO cells (ligand)
chain: ARNGDHCPLGPGRCCRLHTVRASLEDLGWADWVLSPREVQVTMCIGACPSQFRAANMHAQIKTSLHRLKPDTVPAPCCVPASYNPMVLIQKTDTGVSLQTYDDLLAKDCHCI
notes: also called MIC-1
B2: ALK4 receptor-Fc fusion protein (Fc fusion, human, UniProt P36896 24-126, looked up)
chain: SGPRGVQALLCACTSCLQANYTCETDGACMVSIFNLDGMEHHVRTCIPKVELVPAGKPFYCLSSEDLRNTHCCYTDYCNRIDLRVPSGHLKEPEHPSMWGPVE
notes: Bought from R&D Systems or made in-house; not shown: IgG1 Fc domain
B3: murine GDF15 (mGDF15), mature, generated in-house in CHO cells (ligand)
chain: AHPRDSCPLGPGRCCHLETVQATLEDLGWSDWVLSPRQLQLSMCVGECPHLYRSANTHAQIKARLHGLQPDKVPAPCCVPSSYTPVVLMHRTDSGVSLQTYDDLVARGCHCA
B4: ALK7 receptor-Fc fusion protein (Fc fusion, human, UniProt Q8NER5 21-113, looked up)
chain: ELSPGLKCVCLLCDSSNFTCQTEGACWASVMLTNGKEQVIKSCVSLPELNAQVFCHSSNNVTKTECCFTDFCNNITLHLPTASPNAPKLGPME
notes: as for B2
B5: fusion protein incorporating the wild-type TβRIIlong isoform (R&D Systems) (Fc fusion)
chain: TIPPHVQKSDVEMEAQKDEIICPSCNRTAHPLRHINNDMIVTDNNGAVKFPQLCKFCDVRFSTCDNQKSCMSNCSITSICEKPQEVCVAVWRKNDENITLETVCHDPKLPYHDFILEDAASPKCIMKEKKKPGETFFMCSCSSDECNDNIIFSEEYNTSNPD
notes: Bought from R&D Systems; also called TβRIIlong-Fc; not shown: Fc fusion partner of the purchased construct is not described for this follow-up analysis
B6: ALK2 receptor-Fc fusion protein (Fc fusion, human, UniProt Q04771 21-123, looked up)
chain: MEDEKPKVNPKLYMCVCEGLSCGNEDHCEGQQCFSSLSINDGFHVYQKGCFQVYEQGKMTCKTPPSPGQAVECCQGDWCNRNITAQLPTKGKSFPGTQNFHLE
notes: as for B2
B7: hTβRII-hG1Fc fusion protein (R&D Systems) incorporating the wild-type TβRIIshort isoform (Fc fusion)
chain: IPPHVQKSVNNDMIVTDNNGAVKFPQLCKFCDVRFSTCDNQKSCMSNCSITSICEKPQEVCVAVWRKNDENITLETVCHDPKLPYHDFILEDAASPKCIMKEKKKPGETFFMCSCSSDECNDNIIFSEEYNTSNPD
notes: Bought from R&D Systems; also called hTβRII-Fc; TGFβ receptor type II (TβRII)-Fc; not shown: human IgG1 Fc domain
B8: ALK5 receptor-Fc fusion protein (Fc fusion, human, UniProt P36897 34-126, looked up)
chain: LQCFCHLCTKDNFTCVTDGLCFVSVTETTDKVIHNSMCIAEIDLIPRDRPFVCAPSSKTGSVTTTYCCNQDHCNKIELPTTVKSSPGLGPVEL
notes: Bought from R&D Systems or made in-house; also called TGFβ receptor type I; not shown: IgG1 Fc domain

Columns and labels:
[1] = biological target: B7; assay: surface plasmon resonance at 37° C., hTβRII-Fc captured, hGDF15 as analyte; 37° C.; hTβRII-Fc captured, hGDF15 as analyte
Excerpt: (§1) These fusion proteins incorporated an IgG1 Fc domain and were either purchased from R&D Systems or generated in-house.

[2] = biological target: B3; assay: surface plasmon resonance with captured receptor-Fc fusion proteins
Excerpt: as §1

[3] = biological target: T1, ALK3 receptor-Fc fusion protein (human, UniProt P36894 24-152); assay: as above
T1 construct: Bought from R&D Systems or made in-house; not shown: IgG1 Fc domain
Excerpt: as §1

[4] = biological target: T2, ALK6 receptor-Fc fusion protein (human, UniProt O00238 14-126); assay: as above
T2 construct: Bought from R&D Systems or made in-house; not shown: IgG1 Fc domain
T2 sequence (looked up): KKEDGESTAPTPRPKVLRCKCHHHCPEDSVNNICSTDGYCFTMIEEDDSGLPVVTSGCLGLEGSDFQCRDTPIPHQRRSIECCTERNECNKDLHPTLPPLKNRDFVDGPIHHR
Excerpt: as §1

[5] = biological target: B7; assay: surface plasmon resonance at 37° C., mGDF15
[6] = biological target: B3; assay: surface plasmon resonance at 37° C., mGDF15
[7] = biological target: T3, GDF15 (human or murine, not specified where printed); assay: surface plasmon resonance, receptor-Fc captured, GDF15 as analyte
T3 construct: Used here only where the species cannot be told
Excerpt: as §1

T1 sequence (P36894 24-152 limits assumed): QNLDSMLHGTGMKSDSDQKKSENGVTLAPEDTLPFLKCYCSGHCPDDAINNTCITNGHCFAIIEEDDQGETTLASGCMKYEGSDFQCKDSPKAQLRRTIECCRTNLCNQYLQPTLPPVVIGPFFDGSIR

Binder: B1
- Kd [1]: 9.56 nM

Binder: B2
- binding result [2]: no binding (tested: 20 nM or 200 nM)

Binder: B3
- binding result [3]: no binding (tested: 20 nM or 200 nM)
- binding result [4]: no binding (tested: 20 nM or 200 nM)
- Kd [5]: 4.8 nM

Binder: B4
- binding result [2]: no binding (tested: 20 nM or 200 nM)

Binder: B5
- Kd [6]: 2.7 nM

Binder: B6
- binding result [2]: no binding (tested: 20 nM or 200 nM)

Binder: B7
- koff [7]: 0.001 s⁻¹
- kon [7]: 292000 M⁻¹ s⁻¹

Binder: B8
- binding result [2]: no binding (tested: 20 nM or 200 nM)
